US20160017348A1 (University of California, published 2016)

What was measured:
NRPE1-Flag (Pol V) = molecular target: T1, NRPE1-Flag (Pol V) (Arabidopsis thaliana, UniProt Q5D869 1-1976); assay: immunoprecipitation and mass spectrometry
T1 construct: Bait for the purification of the Pol V complex; also called Flag-tagged Pol V; not shown: Flag tag

H3(1-15)K9me2 peptide = molecular target: T2, H3(1-15)K9me2 peptide (UniProt P59226 2-16, dimethyl-lysine at K9); assay: ITC; reference is the unmodified H3 peptide
T2 construct: range 2-16; Residues 1-15 are stated for the peptide in the crystal structure; also called H3K9me2 peptide; H3K9me2
T2 peptide (looked up): ARTKQTARKSTGGKA
Method: (§1) All the binding experiments were performed on a Microcal calorimeter ITC 200 instrument at 6° C. First, protein samples were dialyzed overnight against a buffer of 100 mM NaCl, 2 mM β-mercaptoethanol and 20 mM HEPES, pH 7.5, at 4° C. Then the protein samples were diluted and the lyophilized peptides were dissolved with the same buffer. The titration was performed according to standard protocol and the data were fit using the Origin 7.0 program with a 1:1 binding model.

H3K9me1 peptide = molecular target: T3, H3K9me1 peptide (UniProt P59226 2-16, monomethyl-lysine at K9); assay: ITC; reference is the unmodified H3 peptide
T3 peptide (looked up): ARTKQTARKSTGGKA
Method: as §1

H3K9me3 peptide = molecular target: T4, H3K9me3 peptide (UniProt P59226 2-16, trimethyl-lysine at K9); assay: ITC; reference is the unmodified H3 peptide
T4 peptide (looked up): ARTKQTARKSTGGKA
Method: as §1

T1 sequence (Q5D869 whole entry): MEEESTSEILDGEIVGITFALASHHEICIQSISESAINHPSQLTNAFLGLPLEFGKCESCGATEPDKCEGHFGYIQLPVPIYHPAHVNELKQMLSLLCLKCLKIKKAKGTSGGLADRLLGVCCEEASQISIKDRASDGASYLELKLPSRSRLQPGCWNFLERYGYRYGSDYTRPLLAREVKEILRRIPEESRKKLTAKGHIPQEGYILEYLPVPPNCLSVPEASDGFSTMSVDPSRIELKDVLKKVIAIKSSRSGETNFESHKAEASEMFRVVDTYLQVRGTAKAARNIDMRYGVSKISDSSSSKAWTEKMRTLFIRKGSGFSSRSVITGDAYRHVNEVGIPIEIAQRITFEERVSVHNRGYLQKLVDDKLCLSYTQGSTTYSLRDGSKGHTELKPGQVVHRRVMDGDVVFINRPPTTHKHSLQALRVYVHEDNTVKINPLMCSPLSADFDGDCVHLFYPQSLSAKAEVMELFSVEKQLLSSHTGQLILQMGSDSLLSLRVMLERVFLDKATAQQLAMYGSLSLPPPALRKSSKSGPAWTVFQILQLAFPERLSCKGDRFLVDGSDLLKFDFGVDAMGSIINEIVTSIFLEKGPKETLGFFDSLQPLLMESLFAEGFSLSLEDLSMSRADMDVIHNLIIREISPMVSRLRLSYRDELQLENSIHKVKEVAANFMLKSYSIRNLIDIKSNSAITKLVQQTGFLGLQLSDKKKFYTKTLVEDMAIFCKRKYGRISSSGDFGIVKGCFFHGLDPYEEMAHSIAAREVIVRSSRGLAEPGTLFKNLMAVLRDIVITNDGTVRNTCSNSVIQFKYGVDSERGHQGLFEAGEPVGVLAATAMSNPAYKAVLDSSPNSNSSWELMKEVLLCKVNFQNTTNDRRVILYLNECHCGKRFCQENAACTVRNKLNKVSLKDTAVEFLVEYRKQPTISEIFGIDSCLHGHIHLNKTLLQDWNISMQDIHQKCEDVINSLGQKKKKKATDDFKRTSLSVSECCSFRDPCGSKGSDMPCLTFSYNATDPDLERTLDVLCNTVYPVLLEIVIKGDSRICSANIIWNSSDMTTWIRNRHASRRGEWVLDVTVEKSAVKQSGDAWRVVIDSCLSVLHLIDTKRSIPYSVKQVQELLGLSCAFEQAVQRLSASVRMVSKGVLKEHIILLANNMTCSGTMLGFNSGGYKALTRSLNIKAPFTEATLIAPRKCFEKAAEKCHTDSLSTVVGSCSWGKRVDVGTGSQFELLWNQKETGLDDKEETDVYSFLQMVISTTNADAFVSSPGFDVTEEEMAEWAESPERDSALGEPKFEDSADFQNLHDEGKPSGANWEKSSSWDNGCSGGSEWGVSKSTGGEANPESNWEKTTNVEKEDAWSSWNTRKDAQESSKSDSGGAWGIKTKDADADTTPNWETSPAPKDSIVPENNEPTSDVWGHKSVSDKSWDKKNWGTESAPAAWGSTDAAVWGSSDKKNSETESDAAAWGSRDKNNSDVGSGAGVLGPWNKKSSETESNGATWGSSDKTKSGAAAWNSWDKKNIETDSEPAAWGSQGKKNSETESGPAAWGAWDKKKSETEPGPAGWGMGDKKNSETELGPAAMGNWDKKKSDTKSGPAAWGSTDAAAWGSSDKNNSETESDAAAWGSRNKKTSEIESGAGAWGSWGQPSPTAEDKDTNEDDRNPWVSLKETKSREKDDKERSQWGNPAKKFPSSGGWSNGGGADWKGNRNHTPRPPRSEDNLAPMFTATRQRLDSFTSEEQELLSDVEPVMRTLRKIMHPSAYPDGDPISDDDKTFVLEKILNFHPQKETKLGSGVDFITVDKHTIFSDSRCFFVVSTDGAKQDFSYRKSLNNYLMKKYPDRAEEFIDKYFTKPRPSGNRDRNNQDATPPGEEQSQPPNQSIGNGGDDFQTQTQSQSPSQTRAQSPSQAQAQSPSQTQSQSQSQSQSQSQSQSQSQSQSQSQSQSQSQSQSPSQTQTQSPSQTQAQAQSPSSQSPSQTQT

B1: SUVH9 (other)
chain: MGSSHIPLDPSLNPSPSLIPKLEPVTESTQNLAFQLPNTNPQALISSAVSDFNEATDFSSDYNTVAESARSAFAQRLQRHDDVAVLDSLTGAIVPVEENPEPEPNPYSTSDSSPSVATQRPRPQPRSSELVRITDVGPESERQFREHVRKTRMIYDSLRMFLMMEEAKRNGVGGRRARADGKAGKAGSMMRDCMLWMNRDKRIVGSIPGVQVGDIFFFRFELCVMGLHGHPQSGIDFLTGSLSSNGEPIATSVIVSGGYEDDDDQGDVIMYTGQGGQDRLGRQAEHQRLEGGNLAMERSMYYGIEVRVIRGLKYENEVSSRVYVYDGLFRIVDSWFDVGKSGFGVFKYRLERIEGQAEMGSSVLKFARTLKTNPLSVRPRGYINFDISNGKENVPVYLFNDIDSDQEPLYYEYLAQTSFPPGLFVQQSGNASGCDCVNGCGSGCLCEAKNSGEIAYDYNGTLIRQKPLIHECGSACQCPPSCRNRVTQKGLRNRLEVFRSLETGWGVRSLDVLHAGAFICEYAGVALTREQANILTMNGDTLVYPARFSSARWEDWGDLSQVLADFERPSYPDIPPVDFAMDVSKMRNVACYISHSTDPNVIVQFVLHDHNSLMFPRVMLFAAENIPPMTELSLDYGVVDDWNAKLAICN
notes: Endogenous protein searched for by mass spectrometry in Pol V purifications; also called SUVH2/9 peptides
NRPE1-Flag (Pol V)
  binding result: no binding

B2: SHH1 SAWADEE domain (residues 125-258) (other)
chain: ADLAFEAKSARDYAWYDVSSFLTYRVLRTGELEVRVRFSGFDNRHDEWVNVKTSVRERSIPVEPSECGRVNVGDLLLCFQEREDQALYCDGHVLNIKRGIHDHARCNCVFLVRYELDNTEESLGLERICRRPEE
H3(1-15)K9me2 peptide
  fold higher affinity than with unmodified H3 peptides: ~17 fold
H3K9me1 peptide
  fold higher affinity than with unmodified H3 peptides: ~17 fold
H3K9me3 peptide
  fold higher affinity than with unmodified H3 peptides: ~17 fold

B3: SUVH2 (other)
chain: MSTLLPFPDLNLMPDSQSSTAGTTAGDTVVTGKLEVKSEPIEEWQTPPSSTSDQSANTDLIAEFIRISELFRSAFKPLQVKGLDGVSVYGLDSGAIVAVPEKENRELIEPPPGFKDNRVSTVVVSPKFERPRELARIAILGHEQRKELRQVMKRTRMTYESLRIHLMAESMKNHVLGQGRRRRSDMAAAYIMRDRGLWLNYDKHIVGPVTGVEVGDIFFYRMELCVLGLHGQTQAGIDCLTAERSATGEPIATSIVVSGGYEDDEDTGDVLVYTGHGGQDHQHKQCDNQRLVGGNLGMERSMHYGIEVRVIRGIKYENSISSKVYVYDGLYKIVDWWFAVGKSGFGVFKFRLVRIEGQPMMGSAVMRFAQTLRNKPSMVRPTGYVSFDLSNKKENVPVFLYNDVDGDQEPRHYEYIAKAVFPPGIFGQGGISRTGCECKLSCTDDCLCARKNGGEFAYDDNGHLLKGKHVVFECGEFCTCGPSCKSRVTQKGLRNRLEVFRSKETGWGVRTLDLIEAGAFICEYAGVVVTRLQAEILSMNGDVMVYPGRFTDQWRNWGDLSQVYPDFVRPNYPSLPPLDFSMDVSRMRNVACYISHSKEPNVMVQFVLHDHNHLMFPRVMLFALENISPLAELSLDYGLADEVNGKLAICN
notes: Endogenous protein, detected or searched for by mass spectrometry in immunoprecipitates; also called SUVH2 peptides
NRPE1-Flag (Pol V)
  binding result: no binding
